Positions count from the first letter of the chain named. Ends that are not written are not given here.

Here are results for two molecules from patent US20130039923A1 (Novo Nordisk, published 2013).

For test [1], the target named is T1, Peptide no. 13 (Figures 7A, 7B) (N-terminus acylated).
T1 construct: peptide array on cellulose
T1 peptide: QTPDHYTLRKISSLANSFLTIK
Description: array of terminally truncated, acylated hIL20 peptides on cellulose; fluorescein-labelled antibody; fluorescence as OD.
Description: (§1) The screenings were done using fluorescence labelled antibodies. The labelling was done by gel-filtering the antibody stock against 1% NaHCO3, using NAP5 column (GE Healthcare according the manual from manufacturer. This was followed by adding 25 mole equivalents of 5(6)-carboxyfluorescein N-hydroxysuccinimide ester (Sigma, C1609) dissolved in DMSO. The coupling was allowed to continue for 2 hours followed by a gelfiltration against TRIS washing buffer (50 mM TRIS, pH=7.4, 0.15M NaCl, 0.1 M ArgHCl, 0.05% Tween 20) in order to removed uncoupled fluorescein.
(§2) Screening of arrays were done by adding 10 μl of antibody to 30 ml incubation buffer (0.5% BSA, 50 mM TRIS, pH=7.4, 0.15M NaCl, 0.1 M ArgHCl, 0.05% Tween 20). The sheets were incubated for 1-2 hours, followed by washing five times with washing buffer. […] The fluorescence intensity were measured and transformed into digits that were exported to Prism 5 (Graph Pad Software, USA) for further analysis.

Test [2] deals with T2, Peptide no. 7 (Figures 7A, 7B) (also: N-terminus acylated).
T2 construct: peptide array on cellulose
T2 peptide: YQTPDHYTLRKISSLAN
The description is as above.
Description: as §1, §2

In test [3] the target is T3, Peptide no. 2 (Figures 7A, 7B) (N-terminus acylated).
T3 construct: peptide array on cellulose
T3 peptide: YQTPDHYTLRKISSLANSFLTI
The test is described as above.
Description: as §1, §2

Test [4] deals with T4, Peptide no. 6 (Figures 7A, 7B) (also: N-terminus acylated).
T4 construct: peptide array on cellulose
T4 peptide: YQTPDHYTLRKISSLANS
Described as above.
Description: as §1, §2

The target in test [5] is T5, Peptide no. 14 (Figures 7A, 7B) (N-terminus acylated).
T5 construct: peptide array on cellulose
T5 peptide: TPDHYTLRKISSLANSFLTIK
The test is described as above.
Description: as §1, §2

Test [6] concerns the target T6, Peptide no. 15 (Figures 7A, 7B) (N-terminus acylated).
T6 construct: peptide array on cellulose
T6 peptide: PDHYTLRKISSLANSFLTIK
The description is as above.
Description: as §1, §2

For test [7], the target named is T7, Peptide no. 5 (Figures 7A, 7B) (also: N-terminus acylated).
T7 construct: peptide array on cellulose
T7 peptide: YQTPDHYTLRKISSLANSF
The test is described as above.
Description: as §1, §2

For test [8], the target named is T8, Peptide no. 16 (Figures 7A, 7B) (also: N-terminus acylated).
T8 construct: peptide array on cellulose
T8 peptide: DHYTLRKISSLANSFLTIK
Described as above.
Description: as §1, §2

Test [9] deals with T9, Peptide no. 3 (Figures 7A, 7B) (N-terminus acylated).
T9 construct: peptide array on cellulose
T9 peptide: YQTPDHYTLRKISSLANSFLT
The description is as above.
Description: as §1, §2

The target of test [10] is T10, Peptide no. 4 (Figures 7A, 7B) (N-terminus acylated).
T10 construct: peptide array on cellulose
T10 peptide: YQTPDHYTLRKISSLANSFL
The test is described as above.
Description: as §1, §2

The target of test [11] is T11, Peptide no. 1 (Figures 7A, 7B) (N-terminus acylated).
T11 construct: peptide array on cellulose
T11 peptide: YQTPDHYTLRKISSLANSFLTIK
Described as above.
Description: as §1, §2

The target in test [12] is T12, Peptide no. 17 (Figures 7A, 7B) (also: N-terminus acylated).
T12 construct: peptide array on cellulose
T12 peptide: HYTLRKISSLANSFLTIK
The test is described as above.
Description: as §1, §2

The target of test [13] is T13, recombinant human interleukin-20 (human, UniProt Q9NYY1 25-176).
T13 construct: also called hIL20; IL20
T13 sequence: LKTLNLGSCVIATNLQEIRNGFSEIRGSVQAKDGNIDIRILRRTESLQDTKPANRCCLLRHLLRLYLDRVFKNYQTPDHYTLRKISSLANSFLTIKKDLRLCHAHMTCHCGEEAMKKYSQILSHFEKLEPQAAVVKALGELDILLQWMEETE
The test can be described thus: SPR (Biacore 3000/T100), antibody amine-coupled on CM5, recombinant hIL20 injected 3.125-100 nM, 1:1 Langmuir, 25 C; antibody from hybridoma. In general terms: SPR reads the build-up and loss of mass on a sensor chip optically.
Description: (§3) Affinity studies were performed using a direct binding procedure, with the monoclonal antibody covalently coupled via free amine groups to the carboxymethylated dextrane membrane (CM5) on the sensor chip surface. […] The kinetic parameters for the interaction could be calculated using a 1:1 interaction Langmuir fitting model.
(§4) The purified monoclonal antibodies were immobilized in individual flow cells on a CM5 type sensor chip. Immobilizations were performed using a standard amine coupling procedure, aiming for an immobilization level of 1000 Resonance Units (RU). The antibodies were diluted to 5 μg/ml in 10 mM NaAc pH 5.0. […] Association (injection) was 3 min., followed by a 30 min. dissociation (wash) period. Flow rate was 30 μl/min. Experiments were performed at 25° C. Regeneration of the surface following each cycle, was accomplished by injection of 30 sec. pulse of 10 mM Glycin-HCl pH 1.8, at a 30 ul/min flow rate. Detection in all flow cells simultaneously. Flow cell No. 1 contained no immobilized antibody, and was used for subtraction of background and bulk. […] Data was inspected for mass-transport limitations prior to calculation of the kinetic parameters. Experiments were performed on Biacore 3000 and T100 instruments. Data was evaluated using Biaeval 4.1 and Biacore T100 evaluation software.

Test [14] has as its target T13, recombinant human interleukin-20. The test can be described thus: SPR (Biacore 3000/T100), antibody amine-coupled on CM5, recombinant hIL20 injected 3.125-100 nM, 1:1 Langmuir, 25 C; antibody from HEK293.
Description: as §3, §4
The target is the same in test [15]. Description: cell-based or functional assay.
In test [16] the target is T14, Peptide no. 53 (Figure 8A).
T14 construct: Ala-scan peptide on the array; also called Peptide no; S87A
T14 peptide: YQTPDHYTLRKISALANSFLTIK
The test can be described thus: Ala-scan peptide array of hIL20 74-96 on cellulose; fluorescein-labelled antibody; fluorescence as OD.
Description: as §1, §2

In test [17] the target is T15, Peptide no. 56 (Figure 8A).
T15 construct: Ala-scan peptide on the array; also called Peptide no; S91A
T15 peptide: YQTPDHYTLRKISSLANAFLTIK
Described as above.
Description: as §1, §2

Test [18] concerns the target T16, Peptide no. 61 (Figure 8A).
T16 construct: Ala-scan peptide on the array; also called Peptide no; K96A
T16 peptide: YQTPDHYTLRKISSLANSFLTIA
Described as above.
Description: as §1, §2

The target in test [19] is T17, Peptide no. 58 (Figure 8A).
T17 construct: Ala-scan peptide on the array; also called Peptide no; L93A
T17 peptide: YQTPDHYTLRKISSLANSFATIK
The test is described as above.
Description: as §1, §2

Test [20] deals with T18, Peptide no. 52 (Figure 8A).
T18 construct: Ala-scan peptide on the array; also called Peptide no; S86A
T18 peptide: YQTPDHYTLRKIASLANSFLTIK
Described as above.
Description: as §1, §2

Test [21] deals with T19, Peptide no. 45 (Figure 8A).
T19 construct: Ala-scan peptide on the array; also called Peptide no; H79A
T19 peptide: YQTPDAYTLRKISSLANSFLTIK
The description is as above.
Description: as §1, §2

B1: human anti-hIL20 monoclonal antibody 15D2 (antibody, V domains shown)
VH: QVQLVQSGAEVKRPGASVKVSCKASGYTFTNDIIHWVRQAPGQRLEWMGWINAGYGNTQYSQNFQDRVSITRDTSASTAYMELISLRSEDTAVYYCAREPLWFGESSPHDYYGMDVWGQGTTVTVSS
VL: AIQLTQSPSSLSASVGDRVTITCRASQGISSALAWYQQKPGKAPKLLIYDASSLESGVPSRFSGSGSGTDFTLTISSLQPEDFATYYCQQFNSYPLTFGGGTKVEIKR
notes: also called 15D2-wt; 15D2 wild-type
On to B1, for which the binding result in test [1], in test [2], in test [3], in test [4], in test [5] and in test [6] was “binds” each time. Also, the binding result in test [7], in [8], in [9], in [10], in test [11] and in [12] was “binds” throughout. The values for the dissociation constant Kd in test [13] and in test [14] were 0.55 nM and 0.032 nM, respectively. Besides, the koff (usually the first-order rate constant of dissociation) in test [13] is 0.00011 s⁻¹; in test [14] it was 6.3e-05 s⁻¹. Moreover, the kon (commonly a measure of how fast the partners come together) came to 190000 M⁻¹ s⁻¹ in [13] and 1.9e+06 M⁻¹ s⁻¹ in [14]. Moreover, in test [15], the “IC50, inhibition of IL20 induced proliferation of BaF-3(hIL20R) at 1e-9M hIL20 (assay 1)” value worked out at 180 nM. Besides, the “IC50, inhibition of IL20 induced proliferation of BaF-3(hIL20R) at 1e-9M hIL20 (assay 2)” value in [15] was 420 nM. In addition, the “IC50, inhibition of IL20 induced proliferation of BaF-3(hIL20R) at 1e-9M hIL20 (assay 3)” value in [15] is 340 nM. In addition, the “IC50, inhibition of IL20 induced proliferation of BaF-3(hIL20R) at 1e-9M hIL20 (assay 6)” value in test [15] came out at 120 nM. For the same molecule, the “IC50, inhibition of IL20 induced proliferation of BaF-3(hIL20R) at 1e-9M hIL20 (assay 7)” value in test [15] was found to be 436 nM.

B2: human anti-hIL20 monoclonal antibody 5B7 (antibody, human IgG4, V domains shown)
VH: B1 VH with T30S, N31S, D32H, I34M, Q59K, S69T, S106L
VL: B1 VL
notes: described as human IgG4; also called 5B7-wt
Take B2: in [13], the equilibrium dissociation constant (Kd) – broadly, the equilibrium constant for the complex coming apart – was 0.75 nM; the off-rate (koff) is 0.0001 s⁻¹; the association rate constant (kon) amounted to 140000 M⁻¹ s⁻¹. The binding result in test [16] is on record as “binds”. Besides, in test [17], the binding result is given as “binds”. Also, the binding result in [18] was “binds”. Moreover, the binding result in [19] is reported as “binds”. Further, in test [20], the binding result is reported as “binds”. For the same molecule, in [21], the binding result was “binds”. Moreover, in test [15], the “IC50, inhibition of IL20 induced proliferation of BaF-3(hIL20R) at 1e-9M hIL20 (assay 1)” value turned out to be 260 nM; the “IC50, inhibition of IL20 induced proliferation of BaF-3(hIL20R) at 1e-9M hIL20 (assay 2)” value was 4540 nM; the “IC50, inhibition of IL20 induced proliferation of BaF-3(hIL20R) at 1e-9M hIL20 (assay 3)” value came to 760 nM; the “IC50, inhibition of IL20 induced proliferation of BaF-3(hIL20R) at 1e-9M hIL20 (assay 6)” value was 200 nM.
